Reference: patent US20220213225A1 (INVENRA, published 2022)

Assays:
[1] = target: T1, CTLA4 (antigen immobilised on the biosensor) (human, UniProt P16410 36-161, biotinylated in Examples 30 and 35); assay: BLI steady state analysis, biotinylated CTLA4 on streptavidin sensor, two-fold dilutions of the binding molecule from 2 µM to 31.25 nM; monovalent
T1 construct: also called hCTLA4; biotinylated human CTLA4

[2] = target: T1, CTLA4 (antigen immobilised on the …); assay: Octet biolayer interferometry; antigen immobilised, B-Body as analyte

T1 sequence (P16410 36-161 limits assumed): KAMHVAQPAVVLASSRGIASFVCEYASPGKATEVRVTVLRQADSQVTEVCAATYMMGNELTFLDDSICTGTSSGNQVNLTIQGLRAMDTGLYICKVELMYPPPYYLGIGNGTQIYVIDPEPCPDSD

| Kd [1] [nM] | Binder | binding result [2] |
| --- | --- | --- |
| 19 | BC1 1×1 B-Body SNIPER 19×8 binding molecule (CTLA4-19 x CD25-8) (bispecific antibody) chain 1: not shown chain 2: EVQLVESGGGLVQPGGSLRLSCAASGFTFSGYWIHWVRQAPGKGLEWVAAITSRDSYTYYADSVKGRFTISADTSKNTAYLQMNSLRAEDTAVYYCARGSYLGSAFDYWGQGTLVTVSSASPREPQVYTDPPSRDELTKNQVSLTCLVKGFYPSDIAVEWESNGQPENNYKTTPPVLDSDGSFFLYSKLTVDKSRWQQGNVFSCSVMHEALHNHYTQKSLSLSGEC chain 3: SDIQMTQSPSSLSASVGDRVTITCRASQSVSSAVAWYQQKPGKAPKLLIYSASSLYSGVPSRFSGSRSGTDFTLTISSLQPEDFATYYCQQYSSQPATFGQGTKVEIKRTVAAPSVFIFPPSDEQLKSGTASVVCLLNNFYPREAKVQWKVDNALQSGNSQESVTEQDSKDSTYSLSSTLTLSKADYEKHKVYACEVTHQGLSSPVTKSFNRGECDKTHTCPPCPAPELLGGPSVFLFPPKPKDTLMISRTPEVTCVVVDVSHEDPEVKFNWYVDGVEVHNAKTKPREEQYNSTYRVVSVLTVLHQDWLNGKEYKCKVSNKALPAPIEKTISKAKGQPREPQVCTLPPSREEMTKNQVSLSCAVKGFYPSDIAVEWESNGQPENNYKTTPPVLDSDGSFFLVSKLTVDKSRWQQGNVFSCSVMHEALHNHYTQKSLSLSPGK chain 4: EVQLVESGGGLVQPGGSLRLSCAASGFTFSSYYIHWVRQAPGKGLEWVAKIQPKGGYTYYADSVKGRFTISADTSKNTAYLQMNSLRAEDTAVYYCARSYYYRPHAFDYWGQGTLVTVSSASTKGPSVFPLAPSSKSTSGGTAALGCLVKDYFPEPVTVSWNSGALTSGVHTFPAVLQSSGLYSLSSVVTVPSSSLGTQTYICNVNHKPSNTKVDKKVEPPKSC | – |
| – | bivalent bispecific B-Body “BC1” (PD1 x Antigen A) (bispecific antibody, Chains 1+2 form the Antigen A site, chains 3+4 the PD1 site (nivolumab variable domains)) chain 1: not shown chain 2: EVQLVESGGGLVQPGGSLRLSCAASGFTFSDYDIHWVRQAPGKGLEWVGDITPYDGTTNYADSVKGRFTISADTSKNTAYLQMNSLRAEDTAVYYCARLVGEIATGFDYWGQGTLVTVSSASPREPQVYTDPPSRDELTKNQVSLTCLVKGFYPSDIAVEWESNGQPENNYKTTPPVLDSDGSFFLYSKLTVDKSRWQQGNVFSCSVMHEALHNHYTQKSLSLSGEC chain 3: not shown chain 4: QVQLVESGGGVVQPGRSLRLDCKASGITFSNSGMHWVRQAPGKGLEWVAVIWYDGSKRYYADSVKGRFTISRDNSKNTLFLQMNSLRAEDTAVYYCATNDDYWGQGTLVTVSSASTKGPSVFPLAPSSKSTSGGTAALGCLVKDYFPEPVTVSWNSGALTSGVHTFPAVLQSSGLYSLSSVVTVPSSSLGTQTYICNVNHKPSNTKVDKKVEPPKSC | no binding (tested: not given on the sheet) |
